Measured values from a protein production outcome set (Wang et al. 2014).

Test: label from the status in PepcDB records

Sequence | protein production
MNGKLNLPINTVIGVSLLVLLLVPALYFAKPVLLPMVISTFVALLFSPLINYFEDKGLPRTITVVVTLTLLVSVSILGLAAISEPAKQWWAELPSIVQNVSQEVNEVTKASSEHMNAPLELASDMNIDEMGNNTVFSLLKALATTTPTLLTQAMIVLFMVYFMLNHGRSLFRKSVSRLRGFSKQRQAVELVQALQKDLSRYIGTITLVNAGLGLCVGLVFFVLGLEDPFLWGAFAGVMNFAPYLGPVISMASFGFVAYLQLDSVSFMLTVVSIYLLLNLIESQFVTPTLLGRRFNLNPLVIFMWLVFWGWLWGGMGLLIGVPLLVCINILADRLALCGSTNI | failed
MFIPAAQSAYRTLRKTQPRVRLNAIFKNGYSSKVEYKPIRSVLVANRGEIAIRVFRACTELGIKSVAVYSEQDKMHMHRQKADESYIVGKGLPPVEAYLNIPELIRVCKENDVDAVHPGYGFLSERSDFAQAVIDAGLRFIGPSPEVVQKMGDKVAARVAAIEAGVPIVPGTDGPVTTKEEALEFCKKHGLPVIFKAAYGGGGRGMRVVRKMEDVEESFQRASSEAKAAFGNGAMFIEKFIERPRHIEVQLLGDKAGNVVHLYERDCSVQRRHQKVVEIAPAPRLPIEIRDKMTEAAVRLARHVGYENAGTVEFLCDESGNFYFIEVNARLQVEHTVTEEITGIDLVQSQIRVAEGMTLPELGYTQDKIVPRGYAIQCRVTTEDPANDFQPNTGRLEVFRSGEGMGIRLDSASAYAGAIISPYYDSLLVKVISHASDLQSSASKMNRALREFRIRGVKTNIPFLLNVLENQKFLHGVLDTYFIDEHPQLFKFKPSLNRAQKLLNYMGEVLVNGPQTPLATTLKPALVSPHVPEVPLDLSPEAIEREERGEAKVTEPPKGLREVLVCEGPEAFAKEVRNRKELLLMDTTFRDAHQSLLATRVRSHDLLKISPYVTHKFNNLYSLENWGGATFDVALRFLHECPWERLEEMRKRIPNIPFQMLLRGANAVGYTSYPDNVVYKFCELAVQTGMDIFRVFDSLNYLPNLILGMEAAGKAGGVVEAAISYTGDVSDPKRTKYDLKYYTNLADELVKAGTHVLCIKDMAGLLKPESARLLITAIRDKHPDIPIHIHTHDTSGAGVASMLACANAGADVVDVAVDSMSGMTSQPSMGAVVASLQGTPLDTNLDLRTVSEYSAYWEQTRTLYAPFECTTTMRSGNADVYLNEIPGGQYTNLQFQAFSLGLGDFFEDVKKAYREANLLLGDIIKVTPSSKVVGDLAQFMVQNDLTADQVLERAEELSFPKSVVEYLQGSIGIPHGGFPEPLRSRVLKDMPRIEGRPGAELKDLDFDKLKKELQESHTCVTNRDVMSAALYPQVTNDFLNFREKYGPVDKLDTRIFLTGPKVGEEFDVPLERGKTLSVKALAVSADLKPNGIREVFFELNGQLRAVHILDKEAVKEIHVHPKANKSNKSEVGAPMPGTVIDIRVKVGDKVEKGQPLVVLSAMKMEMVVQSPLAGVVKKLEIANGTKLEGEDLIMIIE | failed
MAGAPGPLRLALLLLGMVGRAGPRPQGATVSLWETVQKWREYRRQCQRSLTEDPPPATDLFCNRTFDEYACWPDGEPGSFVNVSCPWYLPWASSVPQGHVYRFCTAEGLWLQKDNSSLPWRDLSECEESKRGERSSPEEQLLFLYIIYTVGYALSFSALVIASAILLGFRHLHCTRNYIHLNLFASFILRALSVFIKDAALKWMYSTAAQQHQWDGLLSYQDSLSCRLVFLLMQYCVAANYYWLLVEGVYLYTLLAFSVLSEQWIFRLYVSIGWGVPLLFVVPWGIVKYLYEDEGCWTRNSNMNYWLIIRLPILFAIGVNFLIFVRVICIVVSKLKANLMCKTDIKCRLAKSTLTLIPLLGTHEVIFAFVMDEHARGTLRFIKLFTELSFTSFQGLMVAILYCFVNNEVQLEFRKSWERWRLEHLHIQRDSSMKPLKCPTSSLSSGATAGSSMYTATCQASCS | failed
GPSRMRHERVVIIKNMFHPMDFEDDPLVLNEIREDLRVECSKFGQIRKLLLFDRHPDGVASVSFRDPEEADYCIQTLDGRWFGGRQITAQAWDGTTDYQ | not failed
QKKDTSNHFHVFVGDLSPEITTEDIKAAFAPFGRISDARVVKDMATGKSKGYGFVSFFNKWDAENAIQQMGGQWLGGRQIRTNWATRKPPAPKSTYESNTKQ | not failed
MQGIKRKLVYVTAYELIGMSISTLGLALLAGSTPTTTGPLAVVITTVAVTWNFIYNCLFEFWERRQAVRGRSIARRVAHAIGFQLTLVVYLIPLIAWWMGISLLEAFWLDLALIVLIPCYTFLFNWAFDRLFGLPTSALPAGEAASV | failed
MQTESNPLAERFIARNLLDLAIRITLIGGLTVWCYRVAEPFIGMLLWSIILAVTLAPLHMRLTRLLGARPRLAAVVLTLATMLVLLVPGAMLTASLGDSLVNIFHHSTGRIVRIPAPPDFVIELPLIGVRLHEIWLQAMTNLQDVLKPLQPHLATAGRWLLAGMASAGLGIAVFLASIAIAGVILVYADPAKRAAHAIGVRIAGPEQGVALAQLTAATIRAVAQGVIGVALIQAVLAGLGFLLAGVPAAGLWAIVALLICIVQLPLFLLMVPMVVYVFLNNTPTVAAVFAVWCLLVSLCDNVLKPLMLARGVDIPIPVILIGALGGVLAAGIVGLFLGSVGFGLGYVLFMQWVRQQSPAG | failed
MQIPIYSKLKTKLESKGIDNISSGQIAWFVCSLILALVTYIILTFHYIYISYGKYDKNLFLLIFDRNAIELFVIVYSCIMFNLLYIYNAIPLVLSAVFIFLAFYFSSLSLFIVGCCGIGVFFLISIFKRKFMFSVLLFALGYTCTLFFFYGLATY | failed
MIVAWTLGIFGDDLPKGGARETGLLVHVSAGLLILAALIMRLVWRAAVPPPPPEPNEFRRWLGAFADPSARLFHYTLYALLVVVPVAGIVTQFARGEALPLLGIYEISSPWIRDRAFAHSVKEIHEIAAHALVFVAFFHAGAALIHHIVFRDNTLNRMLPRSK | failed
MAEAIFALDVGTRKVAGLVLAQGKKGYHIQAAAVVEHQQRAMLDGQIHDIPQVALAIQDVKGQLEKKLHISLKEAAVAAAGRALKTWRASATSQLSPAQEIAPQAVLALEAAAVQEAEKLLLEASEQPLAYHCVGYSVVGYNLDGHPIGNLVGQRGQSMTAEVIATFLPRVVVDSLVTALERAGLAMHSLTLEPIAASAVAVPAAMRGLNLALVDIGAGTSDIAITGQGTISGYAMVPSAGDEITEALASALILDFNTAERVKRQLSTRENLTFTDVVGQRHTLAAAELMEIIKPAVTELARQVATQIILLNGKPPQAVLLIGGGSLTPGLAAALAGQLEISPERVAVRGREVLNGISGAKNLQGPQAITPIGIAITALKREGLGLARVIVNGRPVHFLAGQQMTVTQALLAAGIPARHLYGRPGRGLGVEVNGRLTFLRGQPGEPGKILVNEAPATLETVVKAGDHIIVTPGRDGADAWGTVGDLVPELAPKTITFNGRRITLEPEIIMNGNRVDYRTPVQDQARITYNPLDTVARVLEYLGEPLDGPVLLNGQQVRPEAPIKDGDNLVTGAGATGRNINITINGRPATLRVQAGEALFTDVFNYLDFPSSPPPGRKTLVMEVNGRPAEFTTPLAEGDAVTLRWDP | failed
MTTLKLFDIEHAWGLPRKVSPRFGARLILRGLHLDYLHDRASFVGEFPPAIKQQFVEAFPAMVKQLERLVATGEIDTTEQHCVSIEHAGFTCEADTLGSHGYLYIAIYQTKAKPLTTSNLTITRLEHHHHHH | failed
MAATAREDGASGQERGQRGCEHYDRGCLLKAPCCDKLYTCRLCHDNNEDHQLDRFKVKEVQCINCEKIQHAQQTCEECSTLFGEYYCDICHLFDKDKKQYHCENCGICRIGPKEDFFHCLKCNLCLAMNLQGRHKCIENVSRQNCPICLEDIHTSRVVAHVLPCGHLLHRTCYEEMLKEGYRCPLCMHSALDMTRYWRQLDDEVAQTPMPSEYQNMTVDILCNDCNGRSTVQFHILGMKCKICESYNTAQAGGRRISLDQQ | failed
MTDPSSTLRLRGLLAEIVAAPLTRTVALLALCSAYIQGPLTKIFDFPGAIAEMNHFGLQPAAAFAVFVIIFELTASAMVVTGVLRWVGALALSGFTLLATFIALRFWEMAPGMDRMMATNAFFEHLGLAGAFVIVAAIDLTKGTGK | not failed
MSLEAAGGIVWRWKAGSDIANDPAIASSKSAQEQLDSIEVCIVHRPKYDDWSWPKGKLEQNETHRHAAVREIGEETGSPVKLGPYLCEVEYPLSEEGKKTRHSHDCTADTKHTLYWMAQPISADDAEHLLDAFGPVHRADVGEINDIVWVSVREARKILSHSTDKDTLAVFVDRVQEGAATAQNLLIVRHAKAESRKSWKGTDANRPITPKGAAMAFALNRELACFNPTRLATSPWLRCQETLQVLSWQTERPMEHINTLTEDAFAEHPAVSWLAFREQITQTLNSRETTAICMHRPVIGGMYDHLRGLCARKQLAKQLIAKSPYMPTGTAMSLFIIDTPQGPSIIDIQKVSPIVYEGHHHHHH | not failed
MADWTRAQSSGAVEEILDRENKRMADSLASKVTRLKSLALDIDRDTEDQNRYLDGMDSDFTSVTGLLTGSVKRFSTVARSGRDNRKLLCGMAVVLIVAFFILSYLLSRTRT | failed
MATPKLEIGVIGLGKFGLQVSRTLVELGHSVVGIDSTEGRIRQAQDILSQVYQGNAADPAVLQQLRFQDLDCVIVSVGNSMETSLLVTLNLQEIGVRKIWVKAVSTEHKKVLTRLGVDHVILPEHDVATHLAHRLVNPGMLDLLPLGGGGQILLQELTVDKWAGRTLLDLRLANEHGVMVVAVKPAAFREYRFVPAAHEVLQQGDKLVVIGRHEDVLRLEP | failed
MERVQRLRLTFGKTGEMTLLSHLDLLRLFERAVRRAHLPIAFSGGFHPSPRISTASALPLGVTSYGEIVDLEFYREVDAQTVLEQLRQQLPQEIPLYGCEVVPLSEPAASQALRAATYELLIRTPEPLERETWEQWLETLRATPEILYELTTKSGKTLEHHHHHH | failed
MEYETILKLFSLVYIIIMMTIDFWIFGLILRREYVRVKGLLIILSIVLMMGLESLALAQLNVLLFISGMLLVLIPLFISFLIKDHSINVNRNWKYGLLLSSVIVFDELAMGYLYGNYFTPLPNPLLTAINNPAYGAMMLGDAIFFLYILRRRSIMEFAITTFAISMAFMPSLYLMDRMLEFIMSILTSLFMIVNIVLLYLTEMRMLTFQGQLVAISLSLFNLLMMLGLTFFASLSNLYFLTLSMIASMVWYFFLIFYNVPAKKISPKPFLFLVLVNLTELAMGFGESVLGFNLTNSLFVNTMNCEMMIGSHMMRSPFNNPFWWLFPINPLTMITMTIMKYNLLGKLVMVPFMTIMTTTMAPFYVIMMGAEMSYLVYERFKKVKTRYLKAWTLGILTGIPIFVVLIPYYTNYYIFGMSGMIFPVTLAPFVISLVVIALFSTLFGRGVYCNLVCMSAHMWSNVFYEQFSAKKNSKFWDYLRWIFLVPLIIAFYLFVMMGLGKIKLPIDPLDFYGMFTLNYIWWFFYFLTPIFGIYSCARQGWCGFGTFNGIFNKVLFKIRAKDVNTCKECVSKECDTSCPVKIPISNDILKKGYSNRISCIVCARCVDACDNVEIVNVVTILKNRESKSF | failed
MWKDLTEPLPEACAEGLEIRVVKSPEELADYAAVLSANWNPPAETVQRFYTEAAEYALRKNSPALYLVGYAGNRAVCSAEAFIHASVVGIYNISTLEHKRRRGYGGAITLATLHTARNAGCDTAVLQASEDGEPVYRKLGFTDCGRFTEYSL | failed
MSHRSPLRRLYPISAGGTAMRRSFAIGLTVLFLGNGAVMLAAPYPWYLAVPGVVLTGPFNDHFVRDVGAAYLACGVATALGAWNLRRHAGAVVVAATFQGLHAMIHLVTPFCGAGAPWLLLARDFPGVFLPTAATIWLAIAAFQPSEGEQK | failed
